Laboratory results from patent US20160130569, “A LAGLIDADG HOMING ENDONUCLEASE CLEAVING THE T CELL RECEPTOR ALPHA GENE AND USES THEREOF” (CELLECTIS, published 2016).

How the values were obtained:
I-OnuI wild type (OnuWT) = target: T1, I-OnuI wild type (OnuWT) (Ophiostoma novo-ulmi); experiment: flow; yeast surface display titration; details: label: Alexa Fluor 647
T1 chain: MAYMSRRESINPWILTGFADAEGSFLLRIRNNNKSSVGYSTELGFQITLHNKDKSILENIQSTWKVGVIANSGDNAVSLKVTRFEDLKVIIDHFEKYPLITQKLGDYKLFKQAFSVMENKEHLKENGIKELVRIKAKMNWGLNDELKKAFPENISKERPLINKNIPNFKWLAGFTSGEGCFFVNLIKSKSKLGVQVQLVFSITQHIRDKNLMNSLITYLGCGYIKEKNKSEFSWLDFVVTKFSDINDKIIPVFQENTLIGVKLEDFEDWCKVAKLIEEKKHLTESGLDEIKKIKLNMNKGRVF
Protocol: (§1) Samples of yeast displaying each LHE variant were independently incubated with increasing concentrations of fluorescent dye-labeled synthetic DNA substrates (y-axis). An antibody to a C-terminal epitope was also included (x-axis) such that DNA binding activity could be normalized to the amount of LHE protein expressed on the yeast surface, creating the co-linear pattern, with higher signal in the y-axis per x-axis signal where affinity is greater.
(§2) The LHE containing the engineered DNA recognition interfaces for the TCRA_S02 (SEQ ID NO: 3) target was tested for affinity, specificity, and toxicity characteristics. Affinity was tested by independently incubating yeast displaying the TCRA_S02_2E5_RD1_08 variant, (SEQ ID NO: 7, encoding SEQ ID NO: 8) with DNA substrates containing its target sequences at various concentrations. See FIG. 6 showing the affinity properties of this variant relative to the wild-type I-Onul protein. […] Toxicity was analyzed by in vitro transcribing each LHE into mRNA and transfecting primary human T cells by electroporation, followed by flow cytometry analysis of the survival of the cells relative to transfection with a control mRNA encoding a blue fluorescent protein (BFP).

TCRA_S02_2E5 = target: T2, TCRA_S02_2E5 (Ophiostoma novo-ulmi (engineered)); experiment: flow; yeast surface display titration; Example 3 text names the variant as TCRA_S02_2E5_RD1_08; details: label: fluorescent dye (Alexa Fluor 647) in yeast display assays
T2 chain: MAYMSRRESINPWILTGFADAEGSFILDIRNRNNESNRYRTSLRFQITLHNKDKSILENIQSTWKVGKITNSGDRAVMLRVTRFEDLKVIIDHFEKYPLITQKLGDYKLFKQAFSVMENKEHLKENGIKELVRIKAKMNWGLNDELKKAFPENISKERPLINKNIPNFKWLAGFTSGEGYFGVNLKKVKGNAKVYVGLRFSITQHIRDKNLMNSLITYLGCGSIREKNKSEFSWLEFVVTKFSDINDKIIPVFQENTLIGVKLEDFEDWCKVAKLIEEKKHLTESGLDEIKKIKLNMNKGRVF
Protocol: as §1
as §2, with “(BFP). […]” for “(BFP).”

B1: I-OnuI native target (dsDNA)
DNA 1: TTTCCACTTATTCAACCTTTTA
DNA 2: TAAAAGGTTGAATAAGTGGAAA
How did the Kd (I-OnuI wild type (OnuWT)) turn out when B1 was run?
The Kd was roughly 0.08 nM.

B2: TCRA_S02 (dsDNA)
DNA 1: TGTCTGCCTATTCACCGATTTT
DNA 2: AAAATCGGTGAATAGGCAGACA
B2 was tested. Which Kd (TCRA_S02_2E5) did it give?
Its Kd is roughly 0.09 nM.
